The target in data set [1] is T1, CprB (Streptomyces coelicolor A3(2), UniProt Q7AKF2 1-215).
T1 sequence: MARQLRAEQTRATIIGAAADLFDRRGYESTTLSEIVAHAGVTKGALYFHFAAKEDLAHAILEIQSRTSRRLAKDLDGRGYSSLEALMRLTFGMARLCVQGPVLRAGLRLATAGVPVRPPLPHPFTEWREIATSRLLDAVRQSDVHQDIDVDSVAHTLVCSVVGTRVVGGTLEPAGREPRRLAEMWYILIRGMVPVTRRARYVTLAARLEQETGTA
Description: EMSA; range given for scbR, kasOA, kasOB together; EMSA: 10 mM Tris-HCl pH 7.8, 50 mM KCl, 1 mM EDTA, 1 mM DTT, 5% glycerol, hemoglobin, poly(dI-dC), 20 C, ~1 nM DNA; ITC: 50 mM phosphate pH 7, 150 mM NaCl, 25 C. The following applies: protein: recombinant; chain copies: 4; label: 5'-32P; blunt. (In general: Mobility shift assays separate free from complexed probe on a gel.)

For the next data set, the target named is T2, CprB K43A (Streptomyces coelicolor A3(2), UniProt Q7AKF2 1-215, K43A).
T2 sequence: T1 sequence with K43A
The experiment in a line: EMSA; negligible effect; EMSA: 10 mM Tris-HCl pH 7.8, 50 mM KCl, 1 mM EDTA, 1 mM DTT, 5% glycerol, hemoglobin, poly(dI-dC), 20 C, ~1 nM DNA; ITC: 50 mM phosphate pH 7, 150 mM NaCl, 25 C. As to conditions: protein: recombinant; chain copies: 2; label: 5'-32P (EMSA); none (ITC); blunt.

Another data set deals with T3, CprB S33A (Streptomyces coelicolor A3(2), UniProt Q7AKF2 1-215, S33A).
T3 sequence: T1 sequence with S33A
Described as above. As to conditions: protein: recombinant; chain copies: 2; label: 5'-32P (EMSA); none (ITC); blunt.

For data set [2], the target named is T1, CprB. The experiment in a line: ITC; two-site model, Kd1, n = 0.26, 25 C; EMSA: 10 mM Tris-HCl pH 7.8, 50 mM KCl, 1 mM EDTA, 1 mM DTT, 5% glycerol, hemoglobin, poly(dI-dC), 20 C, ~1 nM DNA; ITC: 50 mM phosphate pH 7, 150 mM NaCl, 25 C. The following applies: protein: recombinant; chain copies: 4; label: 5'-32P (EMSA); none (ITC); blunt. (In general: In ITC the heat of successive injections is recorded.)

Data set [3] deals with T1, CprB. Description: EMSA; EMSA: 10 mM Tris-HCl pH 7.8, 50 mM KCl, 1 mM EDTA, 1 mM DTT, 5% glycerol, hemoglobin, poly(dI-dC), 20 C, ~1 nM DNA; ITC: 50 mM phosphate pH 7, 150 mM NaCl, 25 C. As to conditions: protein: recombinant, chain copies: 4, blunt.
Data set [4] concerns the molecule itself. The experiment in a line: crystal structure; CprB (6 mg/ml) co-crystallised with annealed 22-mer CS DNA, 1:1.2 (dimer of CprB:CS), hanging drop, 22°C, 0.2 M KCl, 0.02 M MgCl2, 0.05 M Tris-HCl pH 7.5, 10% PEG 4000; 3.25 Å.
Data set [5] concerns the target T1, CprB. Description: ITC; n = 0.52 CS per CprB dimer, 25 C; EMSA: 10 mM Tris-HCl pH 7.8, 50 mM KCl, 1 mM EDTA, 1 mM DTT, 5% glycerol, hemoglobin, poly(dI-dC), 20 C, ~1 nM DNA; ITC: 50 mM phosphate pH 7, 150 mM NaCl, 25 C. The following applies: protein: recombinant; chain copies: 4; label: 5'-32P (EMSA); none (ITC, crystal); blunt.
Data set [6] addresses T1, CprB. Description: EMSA; similar trend to OPB; EMSA: 10 mM Tris-HCl pH 7.8, 50 mM KCl, 1 mM EDTA, 1 mM DTT, 5% glycerol, hemoglobin, poly(dI-dC), 20 C, ~1 nM DNA; ITC: 50 mM phosphate pH 7, 150 mM NaCl, 25 C. The following applies: protein: recombinant; chain copies: 4; label: 5'-32P; blunt.
Data set [7] concerns the target T1, CprB. The experiment in a line: EMSA; about five-fold weaker than own upstream sequence; EMSA: 10 mM Tris-HCl pH 7.8, 50 mM KCl, 1 mM EDTA, 1 mM DTT, 5% glycerol, hemoglobin, poly(dI-dC), 20 C, ~1 nM DNA; ITC: 50 mM phosphate pH 7, 150 mM NaCl, 25 C. As to conditions: protein: recombinant; chain copies: 4; label: 5'-32P; blunt, self-complementary.

Residue numbers refer to the chain shown, from its start.

B1: kasOB (dsDNA)
DNA 1: CAAAACAGACTTGTTAGCTGTTT
DNA 2: AAACAGCTAACAAGTCTGTTTTG
In the case of B1, the Kd (in general, the concentration at which binding is half-saturated) with CprB [1] is approximately 1060 nM.

B2: kasOA (dsDNA)
DNA 1: ACAAACCGGTGTGCTGGTTTGTAAAGTCGTGG
DNA 2: CCACGACTTTACAAACCAGCACACCGGTTTGT
As to B2, the Kd in the data set with CprB [1] is approximately 1060 nM.

B3: OPB 27-mer (-47 to -21 of cprB-ATG) (dsDNA)
DNA 1: AGGCAGGCGGCACGGTCTGTTGAGTTC
DNA 2: GAACTCAACAGACCGTGCCGCCTGCCT
As to B3, the binding result in the data set with CprB K43A and with CprB S33A was “binds” in each case. Also, the Kd was 330 nM with CprB [2] and approximately 274 nM in the data set with CprB [3] (label: 5'-32P (EMSA), none (ITC)).

B4: CprB (coelicolor pigment regulator protein B) from S. coelicolor A3(2) (natural protein, UniProt O66122 1-215, looked up)
chain: T1 sequence
modifications: intermonomer disulfide linkage between cysteine residues at position 159
notes: CprB, TetR family gamma-butyrolactone receptor, Streptomyces coelicolor A3(2); the cprB gene encodes a 215 amino acid protein, expressed from pET26b(+); Crystallised with the 22-mer consensus DNA (CS); two homodimers in each asymmetric unit; No tag is mentioned; purification was by cation exchange; also called native CprB; source: E. coli BL21(DE3)pLysS, purified (SP Sepharose)
Take B4: in [4], the stoichiometry N (usually a count of units in the complex or per binding partner) was 2.

B5: CS 22-mer (dsDNA)
DNA 1: ACATACGGGACGCCCCGTTTAT
DNA 2: ATAAACGGGGCGTCCCGTATGT
In the case of B5, the equilibrium dissociation constant (Kd) in the data set with CprB [5] is 200 nM; with CprB [3] (label: 5'-32P (EMSA), none (ITC, crystal)), approximately 374 nM.

B6: scbR (dsDNA)
DNA 1: GGAACCGGCAATGCGGTTTGTTCGATC
DNA 2: GATCGAACAAACCGCATTGCCGGTTCC
Regarding B6, in the data set with CprB [1], the equilibrium dissociation constant (Kd) was approximately 1060 nM.

B7: cprA upstream 25-mer (-44 to -20 of cprA-ATG) (dsDNA)
DNA 1: AACAGGCACACGGTCTGTTGGTTCT
DNA 2: AGAACCAACAGACCGTGTGCCTGTT
In the case of B7, the binding result with CprB [6] is recorded as “binds”.

B8: TetR(OS) 15-mer (dsDNA)
DNA 1: TCTATCATTGATAGG
DNA 2: CCTATCAATGATAGA
On to B8, for which, in the data set with CprB [3] (label: 5'-32P), the binding result was “no binding”.

B9: cprB1 59-mer (-58 to 0 of cprB-ATG) (dsDNA)
DNA 1: GCCGGGGGTAAAGGCAGGCGGCACGGTCTGTTGAGTTCCAGCCCGGGAGAATCCAGCCG
DNA 2: CGGCTGGATTCTCCCGGGCTGGAACTCAACAGACCGTGCCGCCTGCCTTTACCCCCGGC
On to B9, for which the equilibrium dissociation constant (Kd) with CprB [3] (label: 5'-32P) was approximately 400 nM.

B10: QacR(OS) 28-mer (dsDNA)
DNA 1: CTTATAGACCGATCGATCGGTCTATAAG
DNA 2: CTTATAGACCGATCGATCGGTCTATAAG
As to B10, in the data set with CprB [7], the Kd was approximately 1500 nM.

The values above are taken from PMC4150764, “Structural and functional basis of transcriptional regulation by TetR family protein CprB from S. coelicolor A3(2)” (Nucleic Acids Research, 2014).
